Measured values as given in the DeepSol protein solubility set.

Experiment: soluble on expression in E. coli; label from the status in PepcDB or PDB records

With “MVEMTRIKHVAFLNPQGNFDPADSYWTEHPDFGGQLVYVKEVSLALAEMGVQVDIITRRIKDENWPEFSGEIDYYQETNKVRIVRIPFGGDKFLPKEELWPYLHEYVNKIINFYREEGKFPQVVTTHYGDGGLAGVLLKNIKGLPFTFTGHSLGAQKMEKLNVNTSNFKEMDERFKFHRRIIAERLTMSYADKIIVSTSQERFGQYSHDLYRGAVNVEDDDKFSVIPPGVNTRVFDGEYGDKIKAKITKYLERDLGSERMELPAIIASSRLDQKKNHYGLVEAYVQNKELQDKANLVLTLRGIENPFEDYSRAGQEEKEILGKIIELIDNNDCRGKVSMFPLNSQQELAGCYAYLASKGSVFALTSFYEPFGLAPVEAMASGLPAVVTRNGGPAEILDGGKYGVLVDPEDPEDIARGLLKAFESEETWSAYQEKGKQRVEERYTWQETARGYLEVIQEIADRKDEEDEGGSLNIPDYFTNPGASNDEKLLDTFNKLWKE” the “soluble on expression in E. coli” value was “soluble”.
In the case of “ESTTVKMYEALPTGPGKEVGTVVISEAPGGLHFKVNMEKLTPGYHGFHVHENPSCAPGEKDGKIVPALAAGGHYDPGNTHHHLGPEGDGHMGDLPRLSANADGKVSETVVAPHLKKLAEIKQRSLMVHVGGDNYSDKPEPLGGGGARFACGVIE”, the “soluble on expression in E. coli” value is reported as “soluble”.
For “MGSDKIHHHHHHMQNPRRICVADPNHRLSQKRFTRNSRDIFICPDCGCIMADVDFDHDQYESGDYYTMQHKTVQSIEEVWGFRWRYILDQILKINGRSSLLDVGAGNGYFVALASREFSFDASGLEISQEEVQFAADVLNIGLIREDLTQHNLDYDVVTCLNVLEHVVDPQLFLSHLVNRVKPGGLLVITTPNPACIHRKVKGLKNWNMIAPPHHINLFTKESLYILLMRYGLIQLDYQTISTYVNFVRGFDTENLLLRRLFFNLLKIFDLGADHFFIVKKPSQC”, the “soluble on expression in E. coli” value was “not soluble”.
With “MKNPGTHILPKNPECSKQKTLTKQLLLLELFEFQLDAQIQQNTFQLELTIQRRKEHLEIDSVMKIKNRNFANFGMFNSLHIIRFWNLFYNRISAADFPENSGFRMFATEILVKLENIGNVM” the “soluble on expression in E. coli” value was “not soluble”.
In the case of “MSHTILLLQPTDNIESRSWSDYENTTECLEGICRVYEEYLKKKVPAQNEITYDISHLFEFIDDLKDLSMLVLDNTTYTYVPHNKQYVKESIYKLMNNRLNNQH”, the “soluble on expression in E. coli” value is reported as “not soluble”.
In the case of “MHHHHHHSSGRENLYFQGASEALKVVARCRPLSRKEEAAGHEQILTMDVKLGQVTLRNPRAAPGELPKTFTFDAVYDASSKQADLYDETVRPLIDSVLQGFNGTVFAYGQTGTGKTYTMQGTWVEPELRGVIPNAFEHIFTHISRSQNQQYLVRASYLEIYQEEIRDLLSKEPGKRLELKENPETGVYIKDLSSFVTKNVKEIEHVMNLGNQTRAVGSTHMNEVSSRSHAIFIITVECSERGSDGQDHIRVGKLNLVDLAGSERQNKAGPNTAGGAATPSSGGGGGGGGSGGGAGGERPKEASKINLSLSALGNVIAALAGNRSTHIPYRDSKLTRLLQDSLGGNAKTIMVATLGPASHSYDESLSTLRFANRAKNIKNKPRVNEDPKDTLLREF”, the “soluble on expression in E. coli” value is reported as “soluble”.
For “MEHPNLEENVGEQDFASNDRFFNSYNIVPRRILQANYDSSLRQMEGYQEEIETDNPINESRGDEAEELENEGCDDRDRCTSRNSIDSEIYENSDEEVYDESMYESEEEYADSPFIIDKMEECLQNHQIGELGSRVMEGLETGTLADVQLEEFCRSRVKPEVTPREFYEELASSGNGDWKKFSMGQFVLSKMKSSKDTAWANTEATVNSLAANLSKANTVGSIVKRVISREYAIEEKDGFPRYNLTNFYNNTTLQGQGAVAQLTSVYVGFLKNLFKPSFKIWLFTYRPSSAYNFDKHFVEYPASVIDTIFGRKLDAFSMEVLGVYLPEDLLVGGCYNVSDASETFLQSLGENASKEVERRRKFRGPARKTCIGAMAAAMKSLRQHHYNAARDTVSYCSARSDCKEHLTWHQLRFYRAHSGKTKEECDLARPDDVMAFCRERAMPRYSLSPNRDATS”, the “soluble on expression in E. coli” value was “soluble”.
For “MSLSGCASPASASGASALSVWDLFQGGDGMLMDDMIEAVSKGAGGAEGFEIDRTILDWGPSYYTKLAMSAAGGRASDVAAMHLSRLAGYAPGGLVDAFDLDLLAEYGVTEKDFTPAVWARTRHEGTVYAIPLDVHPFIVFYDKKAAERAGLLDAAGELAPMGSPEALLEAGKALAEATGESGILFGHVTDTAQNWRLFAGLYAQTGAAFDLPDGGPPEIDVDAAVRVVTLMTRLFDGKTNPSNLDYNGALAAFSSGRGGMAMLGEWELPTLKKSGMELGAAPFPQVFEKPAVYTDSHSFVLPHQDSPDPARRREAHRYVAQILAQSLTWASAGHIPAYQPVLAEPEYAALDPQSSYADAAEVAVLDPPNWFAGAGSNFQNRMCQPLQSALLGDTTPEKAVRQMVREADTLLRQPNPVAEGHHHHHH”, the “soluble on expression in E. coli” value was “soluble”.
For “MSVASETNWKKLDEKIAISGQISVDDVAAIAAAGYKSIICNRPDGEGGEHQPGSTELEEAAKAAGLQFAYLPVEIGQVSDEKCSAFHQLMATLPGPVLAFCNSGNRARALYSRDVGTTTTPAETISAACDWEHEAAAVTEAESEAAGAAAVSAASSRDEAAGKSIPVTPACNWDNAFDIVVVGGGSAGLGVTASLLRRRSSLRIAIIEPNDKHYYQPAWTLVGGGAYAVDQTVRNTADVIPHGAEWIKAEVSGFSPNDNLVHLADGRTIGYQQLIVCPGIRLAWEKIEGIQETLGKNGVTSNYLFDLAPYTWSLTQQLKGGKALFTQPPMPIKCAGAPQKAMYLSCDYWQRQGVLDKIEVEFDSAGAVLFGVADFVPPLMEYVRKYHANLVFNSNLVKVNGPEKIATFEIKNEAGEVTRVDKPFDMLHVTPPQAAPDFLRDSPLADASGYCEVNPKTLQHTRFANIFSLGDACSSPNTKTAAAVRKQIVIVAENLLAAKDGREFHAVYDGYGACPLTVENGKVVLAEFGFGGKLLPTFPLNPAVARKLYWWFKVKLFPWLYWEGMLKGREWLTRSTETKLEHHHHHH”, the “soluble on expression in E. coli” value was “soluble”.
In the case of “MGSDKIHHHHHHMSIRTRSRKSTPKQPESALRRWLKERHITEVECLVPDITGNARGKIIPADKFSHDYGTRLPEGIFATTVTGDFPDDYYALTSPSDSDMHLRPDASTVRMVPWAADPTAQVIHDCYTKDGQPHELAPRNVLRRVLEAYAEVKLQPVVAPELEFFLVQKNTDPDFPLLPPAGRSGRPETARQSYSIDAVNEFDPILDLMYDYCDAMELDVDTLIHESGAAQLEVNFTHADALSRADQVFLFKRTMREAALRHGVYATFLAKPMETEPGSAMHIHQSLLHAGTGKNVFSGKREGGFSDTFAHYLGGLQKYIPMAMGLLAPNVNSYRRLMFGEVSPSNVLWGFDNRTCGLRVPIDAPQNMRVESRFAGSDANPYLAMAATLACGLLGIREKLEPTAPISSNGKEQGYDLPRSLGEALDELEGCEALKEMLGPRFVRAYISVKRKEYETFFRVISSWEREFLLLNV”, the “soluble on expression in E. coli” value is reported as “not soluble”.
With “MLGGFVMDLFPFLPGVRISLQSGWLPSGAADALLAGLLEGVPWEVHRIHIFGREVNSPRLSCWVGDPQASYRYSGRCFQPRPWWPALAELRMCLEGETGAVFNSVLLNRYRHGGDAIGWHSDDEAELGIDPLIASVSLGASRRFVFRHRRERHLRAECVLSHGDLLLMGGTTQRDYQHALPRTLRVVGERVNLTFRRILMLEHHHHHH” the “soluble on expression in E. coli” value was “soluble”.
For “MGHHHHHHDTDIPTTENLTFQGACRLVANCRDVRCRRLLRNVMPVAGSELPRRPLPPAAQERDAEPRPPHGELQYLGQIQHILRCGVRKDDRTGTGTLSVFGMQARYSLRDEFPLLTTKRVFWKGVLEELLWFIKGSTNAKELSSKGVKIWDANGSRDFLDSLGFSTREEGDLGPVYGFQWRHFGAEYRDMESDYSGQGVDQLQRVIDTIKTNPDDRRIIMCAWNPRDLPLMALPPCHALCQFYVVNSELSCQLYQRSGDMGLGVPFNIASYALLTYMIAHITGLKPGDFIHTLGDAHIYLNHIEPLKIQLQREPRPFPKLRILRKVEKIDDFKAEDFQIEGYNPHPTIKMEMAV”, the “soluble on expression in E. coli” value was “soluble”.
In the case of “MNALPPAIFLMGPTAAGKTDLAIELSKVLPCELISVDSALVYRGMDIGTAKPSKAQLAEFPHRLIDILDPAQSYSAADFRSDALAAMAQITARGNIPLLVGGTMLYFKALLDGLADMPAANAAVRAQLEADAQAFGWQSLHDQLAVVDPVSAARIHPNDPQRLIRALEVYRVSGMSMTAHREQQTAQSTEAAASGCQQLPYTVANLAIAPADRKVLHQRIALRFEQMLDQGFLDEVLALRSRGDLHAGLPSIRAVGYRQVWDHLDGKLTREEMQERGIIATRQLAKRQFTWLRSWDDLHWLDSLASDNLSRALKYLGSVSILSLEHHHHHH”, the “soluble on expression in E. coli” value is reported as “not soluble”.
For “GSHMNIITVTLNMEKYNFLGISIVGQSNERGDGGIYIGSIMKGGAVAADGRIEPGDMLLQVNDMNFENMSNDDAVRVLRDIVHKPGPIVLTVAKSGGGGEIVLWSDIP”, the “soluble on expression in E. coli” value was “soluble”.
